# Experimental data taken from the DeepSol protein solubility set.
# Test: soluble on expression in E. coli; label from the status in PepcDB or PDB records
row,Sequence,soluble on expression in E. coli
1,MGFCNMLLLSNILLTAWLSTAKGEEILCTPPRVENGDGLNVKPVYKENERYHYKCKHGYVPKERGDAICTGSGWSSQPFCEEKTCSPPYILNGIYTPHRIIHRSDDEIRYECNYGFYPVTGSTVSKCTPTGWIPVPRCTLKPCEFPQFKYGRLYYEESLRPNFPVSIGNKYSYRCDNGFSPPSGYSWDYLRCTAQGWEPEVPCVRKCVFHYVENGDSAYWEKIYVQGQSLKVQCYNGYSLQNGQDIMTCTENGWSPPPKCIRIKTCSASDIHIDNGFLSESSYIYALNRETSYRCKQGYVTNTGEISGSITCLQNGWSPQPSCIKSCDMPVFENSITKNTRTWFKLNDKLDYECLVGFENEYKHTKGSITCTYYGWSDTPSCYDSTRTCGPPPPIDNGDITSLSLPEYEPLSSVDYQCQKYYLLKGNKTITCRNGKWSEPPTCLHACVIPENIMEAHNIILKWRHTEKIYAHSGEDIEFECKRGYQKARGSLPFRTKCINGTINYPTCV,soluble
2,MGHHHHHHSHMKYGNPNYGGMKGILSNSWKRRYHSRRIQRDVIKKRALIGDDVGLTSYKHRHSGLVNVPEEPIEEEEEEEEEEEEEEEEDQDMDADDRVVVEYHEELPALKQPRERSASRRSSASSSDSDEMDYDLELKMISTPSPKKSMKMTMYADEVESQLKNIRNSMRADSVSSSNIKNRIGNKLPPEKFADVRHLLDEKRQHSRPRPPVSSTKSDIRQRLGKRPHSPEKAFSSNPVVRREPSSDVHSRLGVPRQDSKGLYADTREKKSGNLWTRLGSAPKTKEKNTKKVDHRAPGAEEDDSELQRAWGALIKEKEQSRQKKSRLDNLPSLQIEVSRESSSGSEAES,not soluble
3,MGSDKIHHHHHHKTSSTQLPTIDAISSVADLTNAVNGVYEQQATEVGSYGAEFTLLADLRSGDFQSISTVNHAGPMYRYQTGKNDEMVYSFYKLFYNSLARLNNVLAAAENLEGADVDILKGELYAMRALYHFDLARVFAKLPSTTDMNDLGIVLSTEVYPTDYIGTRATLQQTYDQILKDIETALPLLSKDKQTGHINYWGALAIRARAYLYLEKNKEALADCKEIIASSPYKLYTRDEYIGAWDKEGTNEAIFEILVTPNYNAQRNSIGYFTHASGYGECAATESFLEELAKHPGDIRTELFAKETDNGYDGTYPQKYKGRDGQIYVNNPKVVRLSEVYLIAAEAALKAGDTSAAAGYMNTLRKNRIENYTDVASITLDDILLERRLELFTEGHTAWDAWRNGKSVNNKFVGEVKPGDYRTIMAIPIGEITVSRGQLIQNPGY,not soluble
4,MARPKTQSERMIILERIIGLVKEQGRITTNDVVAIFGVHRTTAEKYLRIALERGGFIRHGRCGIFRDQRAVIDYDLRRYSSSQVTGFSALPVLEKSPVMQVYGASKMSINKGGAQ,not soluble
5,MQSVELPETHQMLLQTCRDFAEKELFPIAAQVDKEHLFPAAQVKKMGGLGLLAMDVPEELGGAGLDYLAYAIAMEEISRGCASTGVIMSVNNSLYLGPILKFGSKEQKQAWVTPFTSGDKIGCFALSEPGNGSDAGAASTTARAEGDSWVLNGTKAWITNAWEASAAVVFASTDRALQNKSISAFLVPMPTPGLTLGKKEDKLGIRGSSTANLIFEDCRIPKDSILGEPGMGFKIAMQTLDMGRIGIASQALGIAQTALDCAVNYAENRMAFGAPLTKLQVIQFKLADMALALESARLLTWRAAMLKDNKKPFIKEAAMAKLAASEAATAISHQAIQILGGMGYVTEMPAERHYRDARITEIYEGTSEIQRLVIAGHLLRSYRSAENLYFQ,soluble
6,MKESLKDRIRLWKRLYVNAFENALNAIPNVKGVLLAYNTNIDAIKYLDADDLEKRVTEKGKEKVFEIIENPPEKISSIEELLGGILRSIKLGKAMEWFVESEEVRRYLREWGWDELRIGGQAGIMANLLGGVYRIPTIVHVPQNPKLQAELFVDGPIYVPVFEGNKLKLVHPKDAIAEEEELIHYIYEFPRGFQVFDVQAPRENRFIANADDYNARVYMRREFREGFEEITRNVELAIISGLQVLKEYYPDGTTYKDVLDRVESHLNILNRYNVKSHFEFAYTANRRVREALVELLPKFTSVGLNEVELASIMEIIGDEELAKEVLEGHIFSVIDAMNVLMDETGIERIHFHTYGYYLALTQYRGEEVRDALLFASLAAAAKAMKGNLERIEQIRDALSVPTNERAIVLEEELEKEFTEFENGLIDMVDRQLAFVPTKIVASPKSTVGIGDTISSSAFVSEFGMRKR,soluble
7,MTGSQFPREELFAPGHRGCAGCGAAIVARLALKAAGKNTIVANATGCLEVMTTPYPETAWRVPWIHVAFENAAAVASGIEGAVVALKRKKGKYGEEKVNVIAFGGDGGTADIGFQALSGAMERGHDMVYIMYDNEAYMNTGVQRSGSTPFMASTTTSPAGSHIRGENRPKKDMPMIMAAHGIPYIATASISYPEDFMNKVKKACEVNGPAFIQVLQPCTTGWGYPAENTVEMGRLAVETGVWPLFEIENGEFKLNYKPLKRKPIEEYLKVQKRYRHLKPEDISVIQETIDMKCDEYGL,not soluble
8,SKQPDKQRKSQRRAPLHERHKQVRATLSADLREEYGQRNVRVNAGDTVEVLRGDFAGEEGEVINVDLDKAVIHVEDVTLEKTDGEEVPRPLDTSNVRVTDLDLEDEKREARLESEDDSA,soluble
9,MSLKKVNVTYALLYDKTKEKILMVKNKGKNGSYYTLPGGAVKLGETLEEAVIREVKEETGLHITVNGICYISEAFFEERGHHAIFFNFLGEIIGGETNITRPKEIEEITWMELHIASPHLRIPEHLVNMLKKKETVPYFFNGTIVHQSSEGHHHHHH,not soluble
10,MESVLNNEKAIVVFSGGQDSTTCLFYAKKHFKEVELVTFNYGQRHDTEIEVAKQIAQDQGMKHHVLDMSLLSQLTPNALTQHDMEITNNEDGIPNTFVPARNLLFLSFAGALAYQIGAKHIITGVCETDFSGYPDCRDSFIKSMNVTLSLAMDKDFVIHTPLMWLNKAETWKLSDELEVLDYIRTKTLTCYNGIIGDGCGECPACHLRQRGLNQYLESKGAL,not soluble
11,MVKRAKLINDVVELIPIFHLLSTETYRKVYNALLEGWYTARELEEMIGEGYRDALRILKNAGMLEAKWRMPSDPGGKPEKEYHVSYTHVSANFYISLKDLNKVLEVVFMSDDEVEEYVREIIKEIEAGRTSVTYITKDLNLDPLFLRAIAKRSLKLNLKGQLIELAKDEEI,not soluble
12,MIPGSTSGISFSRILSRQTSHQDATQHTDAQQAEIQQAAEDSSPGAEVQKFVQSTDEMSAALAQFRNRRDYEKKSSNLSNSFERVLEDEALPKAKQILKLISVHGGALEDFLRQARSLFPDPSDLVLVLRELLRRKDLEEIVRKKLESLLKHVEEQTDPKTLKAGINCALKARLFGKTLSLKPGLLRASYRQFIQSESHEVEIYSDWIASYGYQRRLVVLDFIEGSLLTDIDANDASCSRLEFGQLLRRLTQLKMLRSADLLFVSTLLSYSFTKAFNAEESSWLLLMLSLLQQPHEVDSLLADIIGLNALLLSHKEHASFLQIFYQVCKAIPSSLFYEEYWQEELLMALRSMTDIAYKHEMAEQRRTIEKLS,not soluble
13,MTVVDAHLHVWDPEQAAYEWLGPAMAPVDRAMRFHDALPALRTAGVGAAVLVQAADNDEDTDLMLATAARHPEVVGVVAWVPLDDPGRARARLAALRRDPHVVGVRTLLHERSDPDWVLGPDADAGLALLAEAGLPFDYSTTSPAALRHLAELSARHPALRLVVDHLGKPPVGGGREDRAEWHRLIAAAAKHPGVHAKLSGLYSASGALDAWTTDEVRPFVEDALELFGPERLMYGGDWPISLLAGGYARTWEAMCELLAPLAPDDRAAVLGGTATRFYRLDPALLNTAHHAAVLEHHHHHH,not soluble
14,GSSIFDIYVVTADYLPLGAEQDAITLREGQYVEVLDAAHPLRWLVRTKPTKSSPSRQGWVSPAYLDRRLKL,soluble
15,HGPAEISDLDRQIEQLRRCELIKESEVKALCAKAREILVEESNVQRVDSPVTVCGDIHGQFYDLKELFRVGGDVPETNYLFMGDFVDRGFYSVETFLLLLALKVRYPDRITLIRGNHESRQITQVYGFYDECLRKYGSVTVWRYCTEIFDYLSLSAIIDGKIFCVHGGLSPSIQTLDQIRTIDRKQEVPHDGPMCDLLWSDPEDTTGWGVSPRGAGYLFGSDVVAQFNAANDIDMICRAHQLVMEGYKWHFNETVLTVWSAPNYCYRCGNVAAILELDEHLQKDFIIFEAAPQETVRASSPSPL,soluble
16,MRDTIPVTILSGSLGAGKTTLLNHLLTEAGDRDIAVLVNDMGTVNVDAELIAEGSELDVDDGVAELSNGCICCELQDDLETAVVRLADDRDFDALVVESSGISEPAPVARLFTTESRVAALYRVDTLVTVLDTRLFLDSFAGETPERRGSGEASADGDGDDTEADGADRPLSDLMVEQVELSNLVVLNKTDLCTDEEMDEAEELVRALQPDAETIRTTFSQVDPDRLFDRALFDQTEISDLPGWKRALAESGHGHGEGSHDHGGDSHETDAHEGDTGHGHDDHHHPEEVYGVTSFTYRRRRPFHPDRLAEVLQDLPSGVVRSKGTVWLAGSERRVVIGQAGPSIRAEAQGPWIASLPEVEQDMYRSNRPELDWHDEHGDRRTELVFIGTDYDESALRTALDDALVTDEEWTESESLTGPFPAEQGEEAVIRSP,not soluble
17,TQVYKAKFGTPNRGWVIIVHGLGEHSGRYSKLVSMLVNEGYAVYTFDWPGHGKSPGKRGHTSVEEAMEIIDFIIEEINDKPFLFGHSLGGLTVIRYAETRPEKIRGVIASSPALAKSPKTPSFMVALAKILGVLLPSLTLSNGIDPNLLSRNPDAVKRYIEDPLVHDRISAKLGRSIFKNMDLAHREAHKIKVPVLLLVGTGDVITPPEGARKLYGEIKVEDKEIVEFEGAYHEIFEDPEWGEEFHKKIVEWIKKH,not soluble
18,MAHHHHHHMVPVKVKWGRETFELTVDLRSTVKCFKEQLQQLTSVPVERQKIMGVKASQCNDNEVTLEAAGVAAGKTLMLIGTAAEVVRATPIVATGNKDSAVQAPASHPAEKQAVGLQNIANTCYMNAAVQMLRLVPEVRDVLNFNANDPIVSELLKLYNTMDTKRDPVVPASLWSILLAHFPTFAEVNEKGHPMQHDSQEALNALLQRINSCLPESHKRLFTGNLSQKMVCKDDPDDQPVLHDVPFLMLSCNIDAEIETLEAGLEAAFNETVKLHSEKLAREALHTRTSRIAAMPEYLFIHMVRFSWRSDIQSKAKILKPVTFPMTLDLHALCAEEYKPELEVERKRVLKRRDIEMERRRAAKNKTKLDDDEAAPAEDASNTAEPINTTVGNHSGYYELCGVISHKGRSADSGHYVFWGKYADQWMVLDDSNTAAVSEEDVKRLRGSGEAHIAYVLMYRSRDPRTKQSVIPL,soluble
19,MKNTTLYTYRDYFVIRGGKPLTGKVKISGAKNAALPIMFATILTEEPCTITNVPDLLDVRNTLLLLRELGAELEFLNNTVFINPSINSFITNQEIIRRMRASVLSLGPLLGRFGRAVVGLPGGCSIGARPIDQHLKFFKEAGADVEVREGYVYVNLKEKRRVHFKFDLVTVTGTENALLYLASVPEESILENIALEPEVMDLIEVLKKMGAHVKVEGRSAYVKGSENLKGFTHSVIPDRIEAGTFMVGAVLTDGEILLENARINHLRAVVEKLKLIGGEVVEENGNLRVFRKESLRACDIETQVYPGFPTDMQAQFMALLSVAKGKSRIKENIFEHRFHHAQELNRLGANITVRGNTAYVEGVERLYGSEVYSTDLRASASLVLAGLVAQGETVVRDVYHLDRGYEKLEEKLKKLGADIERVSEL,soluble
